# B1: TPR t1 (parent)
# chain: GACCAAUCUGCCCUCAGAGCUCGAGAACAUCUUCGGAUGCAGAGGAGGCAGGCUUCGGUGGCGCGAUAGCGCCAACGUCCUCAACCUCCAAUGCAUCCCACCACAUGAUGAUGCCUGAAGAGCCUUGGUUUUUUG
# Variants of: B1
# Experiment: polymerase ribozyme fitness, log enrichment relative to wild type (log ratio); higher = more active; in vitro selection for triplet polymerase activity
# How it was run: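 Libraries of mutants in each subunit of a heterodimeric triplet polymerase ribozyme were generated by PCR and transcribed. In triplicate, each went through one in vitro selection round: annealing with biotinylated primer, partner subunit and triplets; frozen incubation at −7 °C; gel excision of extended constructs; streptavidin-bead capture; RT-PCR. Fitness, taken from Illumina sequencing of input and output libraries, is the logarithm of a genotype's enrichment over wild-type enrichment, averaged across replicates with inverse-variance weights. The logarithm is base 2, and genotypes needed ≥10 input reads and ≥1 read per output to be kept.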
row,Variant,polymerase ribozyme fitness (log ratio)
1,GACCAAUCUGCCCUCAGAGCUCGAGAACAUCUUCGGAUGCAGAGGAGGCUGGCUUCGGUGGCGUGAUAGCGACAACGUACUCAACCUCCAAUGCAUCCCAACACAUGAUGAUGCCUGAAGAGCCUUGGUUUUUUG [A50U C64U C72A C79A C101A],-5.1
2,GACCAAUCUGCCCUCAGAGCUCGAGAACAUCUUCGGAUGCAGAGGAGGCGGGCUUCGGUGGCGCGAUAGCGCCAACGUCCUCAACCUCCAAUGCAUCCCACCACAGGAUGAUGCCGGAAGAGCCUUGGUUUUUUG [A50G U106G U116G],-3.36
3,GACCAAUCUGCCCUCAGAGCUCGAGAACAUCUUCGGAUGCAGAGGAGGCGGGCUUCGGUGGCGCGAUAGCGCCAACGUCCUCAACCUCCAAUGCAUCCCACCACAUGAUGAUGCCAGAAGAGCCUUGGUUUUUUG [A50G U116A],-3.15
4,GACCAAUCUGCCCUCAGAGCUCGAGAACAUCUUCGGAUGCAGAGGAGGCUGGCUUCGGUGGCGCGAUAGCGCCAAGGUCCUCAACCUCCAAUGCAUCCCACCACAUGAUGAUGCCUGAAGAGCCUUGGUUUUUUG [A50U C76G],-1.31
5,GACCAAUCUGCCCUCAGAGCUCGAGAACAUCUUCGGAUGCAGAGGAGGCUGGCUUCGGUGGCGCGAUAGCGUCAACGUCCUCAACCUCCAAUGCAUCCCACCACACGAUGAUGCCUGAAGAGCCUUGGUUUUUUG [A50U C72U U106C],-0.84
6,GACCAAUCUGCCCUCAGAGCUCGAGAACAUCUUCGGAUGCAGAGGAGGCUGGCUUUGGUGGCGCGAUAGCGCCAACGUCCUCCACCUCCAAUGCAUCCCACCACAUGAUGAUGCCUGAAGAGCCUUGGUUUUUUG [A50U C56U A83C],-1.21
7,GACCAAUCUGCCCUCAGAGCUCGAGAACAUCUUCGGAUGCAGAGGAGGCUGGCUUCGGUGGCGCGAUAGCGCCAACGUCCUCAACCUCCAAUGCAUCCCCCCACAUGAUGGUGCCUGAAGAGCCUUGGUUUUUUG [A50U A100C A111G],-2.38
8,GACCAAUCUGCCCUCAGAGCUCGAGAACAUCUUCGGAUGCAGAGGAGGCUGGCUUCGGUGGCGCGAUAGCGCCAACGUCCUUAACCUCCAAUGCAUCCCACCACAUGAUGAUGCCUGAUGAGCCUUGGUUUUUUG [A50U C82U A119U],-2.14
9,GACCAAUCUGCCCUCAGAGCUCGAGAACAUCUUCGGAUGCAGAGGAGGCUGGCUUCGGUGGUGCGAUAGGGCCAACGUCCUCAACCUCCAAUGCAUCCCACCACAUGAUGAUGCCUUAAAAGCCUUGGUUUUUUG [A50U C62U C70G G117U G120A],-6.48
10,GACCAAUCUGCCCUCAGAGCUCGAGAACAUCUUCGGAUGCAGAGGAGGCUGGUUUCGGUGGCGGGAUAGCGCCAACGUCCUCAACCUCCAAUGCAUCCCACCACAUGAUGUUGCCUGAAGAGCUUUGGUUUUUUG [A50U C53U C64G A111U C124U],-8.17
11,GACCAAUCUGCCCUCAGAGCUCGAGAACAUCUUCGGAUGCAGAGGAGGCUGGCUUGGGUGGCGCGAUAGUGCCAACGCCCUCAACCUCCAAUGCAUCCCACCACAUGAUGAUGCCUGAAGAGCCUUGGUUUUUUG [A50U C56G C70U U78C],-5.64
12,GACCAAUCUGCCCUCAGAGCUCGAGAACAUCUUCGGAUGCAGAGGAGGCUGGCUUCGGUGGCGCGAUAGCGUGAACGUCCUCAACCUCCAAUGCAUCCCACCACAUGAUGAUGCCUGAAGAACUUUGGUUUUUUG [A50U C72U C73G G122A C124U],-0.982
13,GACCAAUCUGCCCUCAGAGCUCGAGAACAUCUUCGGAUGCAGAGGAGGCUGGCUUCGGUGGCGCGAUAGGGCCAACGUCCUCAACCUCCAAUGCAUCCCACCACAUGAUGAUGCCUGAAGAGCCUUGGUUUUUUG [A50U C70G],-4.57
14,GACCAAUCUGCCCUCAGAGCUCGAGAACAUCUUCGGAUGCAGAGGAGGCUGGUUUCGGUGGCGCGAUAGCGCCAACGUCCUCGCCCUCGAAUGCAUCCCACCACAUGAUGAUGCUUGAAGAGCCUUGGUUUUUUG [A50U C53U A83G A84C C89G C115U],-5.92
15,GACCAAUCUGCCCUCAGAGCUCGAGAACAUCUUCGGAUGCAGAGGAGGCUGGCUUCGGUGGCGCGAUAGCGCCAACGUCCUCAACCUCCAAUGCAUCCCACCACAUGAUGAUGCCUGAUGAGCCUUGGUUUUUUG [A50U A119U],-1.31
16,GACCAAUCUGCCCUCAGAGCUCGAGAACAUCUUCGGAUGCAGAGGAGGCGGGCGUCGGUGGCGCGAUAGCGCCAACGUCCUCAACCUCCAAUGCCUCCCACCACAUGAUGAUGCCUGAAGAGCCUUGGUUUUUUG [A50G U54G A95C],-1.88
17,GACCAAUCUGCCCUCAGAGCUCGAGAACAUCUUCGGAUGCAGAGGAGGCUGGCUUCGGUGGCGCGAUAGGGCCAACGUCCUCACCCUCCAAUGCAUCCCACCACAUGAUGAUGCAUGAAGAGCCUUGGUUUUUUG [A50U C70G A84C C115A],-4.54
18,GACCAAUCUGCCCUCAGAGCUCGAGAACAUCUUCGGAUGCAGAGGAGGCUGGCUUCGGUGGCGCGAUAGCGCCAACGUCCUCAACCUCCAAUGCAUCCCACCACAUGGUGAUGCCUGAAGAGCCUUGGUUUUUUG [A50U A108G],-3.01
19,GACCAAUCUGCCCUCAGAGCUCGAGAACAUCUUCGGAUGCAGAGGAGGCUGGAUCCGGUGGCGCGAUAGCGCUAACGUCCUCAACCUCCAAUGCAUCCCACCACAUGAUGAUGCCUGAAGAGCCUUGGUUUUUUG [A50U C53A U55C C73U],-0.723
20,GACCAAUCUGCCCUCAGAGCUCGAGAACAUCUUCGGAUGCAGAGGAGGCUGGCUUUGGUGGCGUGAUAGCGCCAACGCCCUCAAACUCCAAUGCAUCCCACCACAUGAAGAUGCCUGAAGAGCCUUGGUUUUUUG [A50U C56U C64U U78C C85A U109A],-6.76
21,GACCAAUCUGCCCUCAGAGCUCGAGAACAUCUUCGGAUGCAGAGGAGGCUGGCUUUGGUGGCGCGAUAGCGCCAACGUCCUCAACCUCCAAUGCAUCCCACCACAUGAUGAUGCCUGAAGAGCCUUGGUUUUUUG [A50U C56U],-0.861

# From the RNAGym collection of RNA variant scans (doi:10.1073/pnas.2313332121)
